In IntAct's records for PubMed 15020407:

B1: High osmolarity signaling protein SHO1 (Saccharomyces cerevisiae), P40073 (parent)
chain: MSISSKIRPTPRKPSRMATDHSFKMKKFYADPFAISSISLAIVSWVIAIGGSISSASTNESFPRFTWWGIVYQFLIICSLMLFYCFDLVDHYRIFITTSIAVAFVYNTNSATNLVYADGPKKAAASAGVILLSIINLIWILYYGGDNASPTNRWIDSFSIKGIRPSPLENSLHRARRRGNRNTTPYQNNVYNDAIRDSGYATQFDGYPQQQPSHTNYVSSTALAGFENTQPNTSEAVNLHLNTLQQRINSASNAKETNDNSNNQTNTNIGNTFDTDFSNGNTETTMGDTLGLYSDIGDDNFIYKAKALYPYDADDDDAYEISFEQNEILQVSDIEGRWWKARRANGETGIIPSNYVQLIDGPEEMHR
partner: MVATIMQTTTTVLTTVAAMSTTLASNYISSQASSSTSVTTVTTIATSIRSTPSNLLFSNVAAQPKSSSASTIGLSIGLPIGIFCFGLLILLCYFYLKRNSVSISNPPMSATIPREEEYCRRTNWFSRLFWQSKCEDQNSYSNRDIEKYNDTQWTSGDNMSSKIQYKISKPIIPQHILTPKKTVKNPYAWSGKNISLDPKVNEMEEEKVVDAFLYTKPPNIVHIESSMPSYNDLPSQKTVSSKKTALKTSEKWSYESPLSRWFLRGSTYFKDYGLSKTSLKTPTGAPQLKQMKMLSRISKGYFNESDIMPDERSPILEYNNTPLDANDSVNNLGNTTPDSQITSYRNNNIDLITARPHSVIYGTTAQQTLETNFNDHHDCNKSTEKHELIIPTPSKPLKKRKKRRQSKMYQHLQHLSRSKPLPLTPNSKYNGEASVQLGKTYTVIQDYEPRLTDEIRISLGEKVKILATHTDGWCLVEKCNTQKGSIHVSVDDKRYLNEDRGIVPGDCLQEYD

Variants of: B1
Details: with fus1_yeast FUS1, P11710

| Variant | effect of a mutation on the interaction |
| --- | --- |
| P352A | decreasing interaction |
